# Laboratory results as given in patent US20250236679A1 (Chugai, published 2025).
# T1: human DLL3-Fc (human)
# T1 construct: also called soluble DLL3 protein
# T1 chain: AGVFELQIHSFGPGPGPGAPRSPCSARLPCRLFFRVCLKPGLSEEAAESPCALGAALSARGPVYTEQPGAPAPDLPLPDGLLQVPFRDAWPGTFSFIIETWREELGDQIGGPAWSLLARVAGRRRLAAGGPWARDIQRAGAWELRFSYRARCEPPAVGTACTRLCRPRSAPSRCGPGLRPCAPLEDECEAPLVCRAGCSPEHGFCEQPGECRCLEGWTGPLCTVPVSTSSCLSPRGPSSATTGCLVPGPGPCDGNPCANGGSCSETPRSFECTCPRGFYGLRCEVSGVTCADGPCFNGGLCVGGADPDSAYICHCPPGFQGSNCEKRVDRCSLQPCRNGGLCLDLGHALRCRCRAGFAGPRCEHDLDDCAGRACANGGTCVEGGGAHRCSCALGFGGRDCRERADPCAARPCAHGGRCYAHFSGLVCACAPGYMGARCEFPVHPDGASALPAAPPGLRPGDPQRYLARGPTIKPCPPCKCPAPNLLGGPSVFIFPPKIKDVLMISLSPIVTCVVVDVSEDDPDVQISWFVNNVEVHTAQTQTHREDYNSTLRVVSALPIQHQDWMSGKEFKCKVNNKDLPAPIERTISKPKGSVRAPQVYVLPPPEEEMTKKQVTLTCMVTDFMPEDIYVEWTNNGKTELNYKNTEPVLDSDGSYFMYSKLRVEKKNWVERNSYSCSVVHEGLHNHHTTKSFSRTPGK
# T2: human DLL3 expressed on cells (human DLL3/BaF3) (human, UniProt Q9NYJ7 27-618)
# T2 construct: Full-length human DLL3 on the membrane of transformed Ba/F3 cells; The ADCC assays also used NCI-H1184 small-cell lung cancer cells that express DLL3; also called Delta-like 3; NM_016941
# T2 sequence: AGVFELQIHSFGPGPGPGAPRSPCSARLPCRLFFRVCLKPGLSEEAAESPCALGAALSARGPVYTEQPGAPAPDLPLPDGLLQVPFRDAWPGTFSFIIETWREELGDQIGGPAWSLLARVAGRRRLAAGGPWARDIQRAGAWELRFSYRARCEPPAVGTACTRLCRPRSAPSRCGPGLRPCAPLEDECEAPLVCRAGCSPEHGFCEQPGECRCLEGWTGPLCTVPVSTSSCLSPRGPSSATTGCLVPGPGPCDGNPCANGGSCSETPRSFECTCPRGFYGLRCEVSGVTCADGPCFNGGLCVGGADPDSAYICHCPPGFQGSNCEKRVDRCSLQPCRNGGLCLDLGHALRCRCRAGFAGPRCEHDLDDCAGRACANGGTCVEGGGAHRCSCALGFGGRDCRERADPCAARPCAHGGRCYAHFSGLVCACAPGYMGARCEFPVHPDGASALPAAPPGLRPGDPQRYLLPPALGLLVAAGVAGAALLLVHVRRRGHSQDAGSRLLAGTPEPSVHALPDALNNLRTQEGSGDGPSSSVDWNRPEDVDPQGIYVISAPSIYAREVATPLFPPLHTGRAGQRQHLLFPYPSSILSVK
# B1: DL301 mouse monoclonal antibody (antibody, mouse IgG1, kappa)
# heavy: QVQLQQSGADLVRPGTSVKVSCKASGYAFTNYLIEWIKQRPGQGLEWIGVMNPGSGGTHYSEKFRGKATLTADKSSSTAYMQLISLTSDDSAVYFCARSDYDYVTYAMDYWGQGTSVTVSSAKTTPPSVYPLAPGSAAQTNSMVTLGCLVKGYFPEPVTVTWNSGSLSSGVHTFPAVLQSDLYTLSSSVTVPSSTWPSETVTCNVAHPASSTKVDKKIVPRDCGCKPCICTVPEVSSVFIFPPKPKDVLTITLTPKVTCVVVDISKDDPEVQFSWFVDDVEVHTAQTQPREEQFNSTFRSVSELPIMHQDWLNGKEFKCRVNSAAFPAPIEKTISKTKGRPKAPQVYTIPPPKEQMAKDKVSLTCMITDFFPEDITVEWQWNGQPAENYKNTQPIMNTNGSYFVYSKLNVQKSNWEAGNTFTCSVLHEGLHNHHTEKSLSHSPGK
# light: DIKMTQSPSSMYASLGERVTITCKASQDINSYLIWFQQKPGKSPKTLIYRTNRLVDGVPSRFSGSGSGQDYSLTISSLEYGDMGIYYCLQYDEFPFTFGSGTKLEIKRADAAPTVSIFPPSSEQLTSGGASVVCFLNNFYPKDINVKWKIDGSERQNGVLNSWTDQDSKDSTYSMSSTLTLTKDEYERHNSYTCEATHKTSTSPIVKSFNRNEC
# notes: also called DL301 mouse antibody
# B2: DL309 mouse monoclonal antibody (antibody, mouse IgG1, kappa)
# heavy: QVQLQQSGGDLMKPGASVKISCKAAGYTFSNYYIEWVKQRPGHGLEWIGEILPGSGSTTYNEKFKGKASFTADTSSNTAYMQLSSLTSEDSAVYYCARWGAREPGFPYWGQGTLVTVSAAKTTPPSVYPLAPGSAAQTNSMVTLGCLVKGYFPEPVTVTWNSGSLSSGVHTFPAVLQSDLYTLSSSVTVPSSTWPSETVTCNVAHPASSTKVDKKIVPRDCGCKPCICTVPEVSSVFIFPPKPKDVLTITLTPKVTCVVVDISKDDPEVQFSWFVDDVEVHTAQTQPREEQFNSTFRSVSELPIMHQDWLNGKEFKCRVNSAAFPAPIEKTISKTKGRPKAPQVYTIPPPKEQMAKDKVSLTCMITDFFPEDITVEWQWNGQPAENYKNTQPIMNTNGSYFVYSKLNVQKSNWEAGNTFTCSVLHEGLHNHHTEKSLSHSPGK
# light: DIVMTQSQKFMSTSVGDRVSVTCKASQNVGTNVAWYQQKPGQSPKALIYSASYRYSGVPDRFTGSGSGTDFTLTISNVQSEDLAEYFCQQYNNYPLTFGAGTKLELKRADAAPTVSIFPPSSEQLTSGGASVVCFLNNFYPKDINVKWKIDGSERQNGVLNSWTDQDSKDSTYSMSSTLTLTKDEYERHNSYTCEATHKTSTSPIVKSFNRNEC
# notes: also called DL309 mouse antibody
# B3: DL312 mouse monoclonal antibody (antibody, mouse IgG1, kappa)
# heavy: EVKLVESGGGLVQPGGSLSLSCAASGFTFTDYYMNWVRQPPGKALEWLALIRNKANGYTTEYNASVKGRFTISRDNSQNILYLQMNALRAEDSATYYCARDSDGYYEYYFDYWGQGTTLTVSSAKTTPPSVYPLAPGSAAQTNSMVTLGCLVKGYFPEPVTVTWNSGSLSSGVHTFPAVLQSDLYTLSSSVTVPSSTWPSETVTCNVAHPASSTKVDKKIVPRDCGCKPCICTVPEVSSVFIFPPKPKDVLTITLTPKVTCVVVDISKDDPEVQFSWFVDDVEVHTAQTQPREEQFNSTFRSVSELPIMHQDWLNGKEFKCRVNSAAFPAPIEKTISKTKGRPKAPQVYTIPPPKEQMAKDKVSLTCMITDFFPEDITVEWQWNGQPAENYKNTQPIMNTNGSYFVYSKLNVQKSNWEAGNTFTCSVLHEGLHNHHTEKSLSHSPGK
# light: DIQMTQSPSSLSASLGERVSLTCRASQEISDYLSWLQQKPDGTIKRLIFAASTLDSGVPKRFSGSRSGSDFSLSISSLESEDFADYYCLQYASYPYTFGSGTKLEIKRADAAPTVSIFPPSSEQLTSGGASVVCFLNNFYPKDINVKWKIDGSERQNGVLNSWTDQDSKDSTYSMSSTLTLTKDEYERHNSYTCEATHKTSTSPIVKSFNRNEC
# notes: also called D312; DL312 mouse antibody
# B4: DL306 mouse monoclonal antibody (antibody, mouse IgG1, kappa)
# heavy: EVQLQQSGPELVKPGASVKMSCRASGYTFTDYYMKWVKQSHGKSLEWIGDINPNNGDTFYNQKFKGKATLTIDKSSSTAYMQLNSLTSDDSAVYYCARDGNYAYFDYWGQGTTLTVSSAKTTPPSVYPLAPGSAAQTNSMVTLGCLVKGYFPEPVTVTWNSGSLSSGVHTFPAVLQSDLYTLSSSVTVPSSTWPSETVTCNVAHPASSTKVDKKIVPRDCGCKPCICTVPEVSSVFIFPPKPKDVLTITLTPKVTCVVVDISKDDPEVQFSWFVDDVEVHTAQTQPREEQFNSTFRSVSELPIMHQDWLNGKEFKCRVNSAAFPAPIEKTISKTKGRPKAPQVYTIPPPKEQMAKDKVSLTCMITDFFPEDITVEWQWNGQPAENYKNTQPIMNTNGSYFVYSKLNVQKSNWEAGNTFTCSVLHEGLHNHHTEKSLSHSPGK
# light: DIVLTQSPASLAVSLGQRATISCRASKSVSTSGYSYMHWYQQKPGQPPKLLIFLASNLESGVPARFSGSGSGTDFTLNIHPVEEEDAATYYCQHSRHLPWTFGGGTKLEIKRADAAPTVSIFPPSSEQLTSGGASVVCFLNNFYPKDINVKWKIDGSERQNGVLNSWTDQDSKDSTYSMSSTLTLTKDEYERHNSYTCEATHKTSTSPIVKSFNRNEC
# notes: also called DL306 mouse antibody
# Key:
# human DLL3-Fc = target: T1, human DLL3-Fc; assay: ELISA, immobilized human DLL3-Fc
# Procedure: The competition of a chimeric antibody and a mouse antibody for binding to the antigen molecule was analyzed by ELISA (FIG. 8 (b)). Human DLL3-Fc was added at 10 ng/well to a Nunc immunoplate and immobilized thereon. A mixture (final concentration: 50 ng/ml) of the chimeric antibody and the appropriately diluted mouse antibody was added to the DLL3-Fc protein-immobilized plate. The plate was incubated at room temperature for 1 hour and then washed. Alkaline phosphatase-labeled anti-human antibodies were added thereto and incubated. After the incubation, Sigma 104 was added thereto, and the absorbance was measured. The binding of the chimeric antibody to the antigen molecule competed with that of the original mouse monoclonal antibody thereto.
# [1] = target: T2, human DLL3 expressed on cells (human …); assay: flow cytometry on human DLL3/BaF3 cells, antibody 5 µg/ml
# Procedure: The binding of each monoclonal antibody to human DLL3 expressed on a cell membrane and the behavior of a human DLL3-monoclonal antibody complex on the cell membrane were analyzed by flow cytometry. Human DLL3/BaF3 cells were suspended in a FACS buffer (PBS containing 1% fetal bovine serum and 0.05% sodium azide). The cell suspension of 1×10⁶ cells/ml was reacted with the monoclonal antibody (final concentration: 5 μg/ml) at 4° C. for 30 minutes. After centrifugation and supernatant removal, the cells were washed once with a FACS buffer. FITC-labeled anti-mouse IgG (H+L) antibodies (Beckman Coulter, Inc.) were added thereto and incubated at 4° C. for 30 minutes. Unreacted FITC antibodies were removed by centrifugation. Then, the cells were resuspended and analyzed using a flow cytometer FACSCalibur (Becton, Dickinson and Company). For the purpose of analyzing the movement or disappearance of the DLL3-antibody complex from the cell membrane, human DLL3/BaF3 cells were suspended in an RPMI1640 culture medium containing 10% fetal bovine serum (FBS) and mouse IL3. The cell suspension of 1×10⁶ cells/ml was mixed with the monoclonal antibody (final concentration: 5 μg/ml) and reacted at 37° C. for 1 hour or 4 hours in a CO2 incubator. After the reaction, the amount of the antibody bound onto the cell membrane was analyzed by flow cytometry in the same way as above. The geometric mean of fluorescence intensity values (X Geo Mean) in a cell histogram plot was determined using the analytical software CELLQuest Pro included in FACSCalibur. All the isolated anti-DLL3 monoclonal antibodies bound to DLL3 on the cells (FIG. 3(a)). The reaction of the antibody with the cells at 4° C. inhibits membrane fluidity such as the cellular uptake of the DLL3-antibody complex from the cell membrane. The reaction of the antibody with the cells at 37° C. may cause the cellular uptake of the DLL3-antibody complex and shading (release from the cell membrane) resulting from protease digestion or the like. The amount of each monoclonal antibody bound onto the cell membrane as a result of incubation at 37° C. for 1 hour or 4 hours is shown in FIG. 3(b) as a relative value compared with that at 4° C. As a result of incubation at 37° C., the amount of the antibody DL303, DL304, DL305, DL308, DL309, or MAB4315 on the surface of the cell membrane was decreased.
Binder,binding result (human DLL3-Fc),binding result [1]
B1,binds,binds
B2,binds,binds
B3,binds,binds
B4,binds,binds
